Measurements as given in paper PMC9482650, “Quantitative fragmentomics allow affinity mapping of interactomes” (Nature Communications, 2022).
Where a chain is given by its changes, count along the chain named.

B1: PLCB2, Q00722 (peptide)
chain: AKADAQESRL
B2: ZNF599, Q96NL3 (peptide)
chain: THHRKIHTRV

Target: ARHGEF12, Q9NZN5-2
Assay: holdup assay
Set-up: key: below the threshold = too weak to quantify, mostly under pKd 3.1 to 4
Conditions: plain residues with an end cap or a label only (N-terminal biotin on a linker: ado-ado)

ARHGEF12, Q9NZN5-2, sequence (Q9NZN5 other isoform, or with tags, fused parts or gaps): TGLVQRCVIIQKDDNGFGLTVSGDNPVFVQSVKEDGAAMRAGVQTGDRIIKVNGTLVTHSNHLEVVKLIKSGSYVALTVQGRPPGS

Binder	pKd
B1	3.93
B2	4.3

Target: DLG1_2, Q12959
Assay: holdup assay
Set-up: key: below the threshold = too weak to quantify, mostly under pKd 3.1 to 4
Conditions: plain residues with an end cap or a label only (N-terminal biotin on a linker: ado-ado)

DLG1_2, Q12959, sequence (Q12959 314-412): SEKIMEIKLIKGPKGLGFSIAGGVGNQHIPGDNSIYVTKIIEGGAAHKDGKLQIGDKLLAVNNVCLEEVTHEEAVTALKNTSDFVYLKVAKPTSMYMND

Binder	pKd
B1	below the threshold
B2	5.53

Target: T1, DLG3_1, Q92796
T1 sequence (Q92796 125-227, limits assumed, looked up): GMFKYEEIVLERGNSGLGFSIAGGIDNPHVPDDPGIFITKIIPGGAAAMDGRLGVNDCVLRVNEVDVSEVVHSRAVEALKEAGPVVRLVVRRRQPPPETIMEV
Assay: holdup assay
Set-up: key: below the threshold = too weak to quantify, mostly under pKd 3.1 to 4
Conditions: plain residues with an end cap or a label only (N-terminal biotin on a linker: ado-ado)

Binder	pKd
B1	below the threshold
B2	4.48

Target: T2, DLG3_3, Q92796
T2 sequence (Q92796 374-475, limits assumed, looked up): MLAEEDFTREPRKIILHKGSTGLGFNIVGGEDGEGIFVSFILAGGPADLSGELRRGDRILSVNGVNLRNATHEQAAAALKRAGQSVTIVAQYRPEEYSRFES
Assay: holdup assay
Set-up: key: below the threshold = too weak to quantify, mostly under pKd 3.1 to 4
Conditions: plain residues with an end cap or a label only (N-terminal biotin on a linker: ado-ado)

Binder	pKd
B1	below the threshold
B2	4.43

Target: DLG5_1, Q8TDM6
Assay: holdup assay
Set-up: key: below the threshold = too weak to quantify, mostly under pKd 3.1 to 4
Conditions: plain residues with an end cap or a label only (N-terminal biotin on a linker: ado-ado)

DLG5_1, Q8TDM6, sequence (Q8TDM6 617-713): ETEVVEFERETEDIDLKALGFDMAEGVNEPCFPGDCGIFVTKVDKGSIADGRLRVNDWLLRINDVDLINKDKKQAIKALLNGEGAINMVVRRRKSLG

Binder	pKd
B1	below the threshold
B2	3.72

Target: T3, DVL3, Q92997
T3 sequence (Q92997 244-331, limits assumed, looked up): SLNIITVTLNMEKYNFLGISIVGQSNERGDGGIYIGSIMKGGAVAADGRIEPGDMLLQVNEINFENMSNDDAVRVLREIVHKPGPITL
Assay: holdup assay
Set-up: key: below the threshold = too weak to quantify, mostly under pKd 3.1 to 4
Conditions: plain residues with an end cap or a label only (N-terminal biotin on a linker: ado-ado)

Binder	pKd
B1	below the threshold
B2	below the threshold

Target: FRMPD2_1, Q68DX3
Assay: holdup assay
Set-up: key: below the threshold = too weak to quantify, mostly under pKd 3.1 to 4
Conditions: plain residues with an end cap or a label only (N-terminal biotin on a linker: ado-ado)

FRMPD2_1, Q68DX3, sequence (Q68DX3 770-861): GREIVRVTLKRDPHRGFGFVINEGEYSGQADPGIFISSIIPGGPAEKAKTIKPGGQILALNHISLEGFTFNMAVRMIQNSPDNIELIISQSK

Binder	pKd
B1	below the threshold
B2	3.89

Target: GOPC, Q9HD26
Assay: holdup assay
Set-up: key: below the threshold = too weak to quantify, mostly under pKd 3.1 to 4
Conditions: plain residues with an end cap or a label only (N-terminal biotin on a linker: ado-ado)

Binder	pKd
B1	4.1
B2	4.67

Target: GORASP2, Q9H8Y8
Assay: holdup assay
Set-up: key: below the threshold = too weak to quantify, mostly under pKd 3.1 to 4
Conditions: plain residues with an end cap or a label only (N-terminal biotin on a linker: ado-ado)

Binder	pKd
B1	below the threshold
B2	4.25

Target: GRASP, Q7Z6J2
Assay: holdup assay
Set-up: key: below the threshold = too weak to quantify, mostly under pKd 3.1 to 4
Conditions: plain residues with an end cap or a label only (N-terminal biotin on a linker: ado-ado)

GRASP, Q7Z6J2, sequence (Q7Z6J2 96-193): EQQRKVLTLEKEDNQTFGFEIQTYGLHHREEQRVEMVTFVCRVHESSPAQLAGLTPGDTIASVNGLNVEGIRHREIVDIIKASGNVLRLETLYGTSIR

Binder	pKd
B1	below the threshold
B2	3.76

Target: GRID2IP_1, A4D2P6
Assay: holdup assay
Set-up: key: below the threshold = too weak to quantify, mostly under pKd 3.1 to 4
Conditions: plain residues with an end cap or a label only (N-terminal biotin on a linker: ado-ado)

GRID2IP_1, A4D2P6, sequence (A4D2P6 1-87): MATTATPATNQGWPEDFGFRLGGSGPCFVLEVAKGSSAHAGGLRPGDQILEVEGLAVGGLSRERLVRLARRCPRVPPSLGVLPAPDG

Binder	pKd
B1	below the threshold
B2	3.6

Target: Inadl_1, Q8NI35
Assay: holdup assay
Set-up: key: below the threshold = too weak to quantify, mostly under pKd 3.1 to 4
Conditions: plain residues with an end cap or a label only (N-terminal biotin on a linker: ado-ado)

Inadl_1, Q8NI35, sequence (Q8NI35 113-229): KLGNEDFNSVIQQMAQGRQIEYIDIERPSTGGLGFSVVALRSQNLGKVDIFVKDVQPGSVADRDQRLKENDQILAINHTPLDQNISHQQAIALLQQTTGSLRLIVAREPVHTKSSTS

Binder	pKd
B1	below the threshold
B2	below the threshold

Target: Inadl_10, Q8NI35
Assay: holdup assay
Set-up: key: below the threshold = too weak to quantify, mostly under pKd 3.1 to 4
Conditions: plain residues with an end cap or a label only (N-terminal biotin on a linker: ado-ado)

Inadl_10, Q8NI35, sequence (Q8NI35 1673-1763): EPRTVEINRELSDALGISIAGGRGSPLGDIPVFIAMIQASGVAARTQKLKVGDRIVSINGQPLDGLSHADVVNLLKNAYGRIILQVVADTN

Binder	pKd
B1	below the threshold
B2	below the threshold

Target: Inadl_5, Q8NI35
Assay: holdup assay
Set-up: key: below the threshold = too weak to quantify, mostly under pKd 3.1 to 4
Conditions: plain residues with an end cap or a label only (N-terminal biotin on a linker: ado-ado)

Inadl_5, Q8NI35, sequence (Q8NI35 673-780): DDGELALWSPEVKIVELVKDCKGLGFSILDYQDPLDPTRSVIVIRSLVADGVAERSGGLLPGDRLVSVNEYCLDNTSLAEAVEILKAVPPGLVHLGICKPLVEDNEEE

Binder	pKd
B1	below the threshold
B2	3.49

Target: Inadl_9, Q8NI35
Assay: holdup assay
Set-up: key: below the threshold = too weak to quantify, mostly under pKd 3.1 to 4
Conditions: plain residues with an end cap or a label only (N-terminal biotin on a linker: ado-ado)

Inadl_9, Q8NI35, sequence (Q8NI35 1530-1615): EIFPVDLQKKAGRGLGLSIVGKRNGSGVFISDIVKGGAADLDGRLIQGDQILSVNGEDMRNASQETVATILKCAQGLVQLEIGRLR

Binder	pKd
B1	below the threshold
B2	3.58

Target: T4, LIN7A, O14910
T4 sequence (O14910 103-200, limits assumed, looked up): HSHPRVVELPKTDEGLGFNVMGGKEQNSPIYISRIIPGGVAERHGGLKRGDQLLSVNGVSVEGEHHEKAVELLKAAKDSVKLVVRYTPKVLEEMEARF
Assay: holdup assay
Set-up: key: below the threshold = too weak to quantify, mostly under pKd 3.1 to 4
Conditions: plain residues with an end cap or a label only (N-terminal biotin on a linker: ado-ado)

Binder	pKd
B1	3.65
B2	below the threshold

Target: T5, LIN7B, Q9HAP6
T5 sequence (Q9HAP6 88-185, limits assumed, looked up): T4 sequence (O14910 103-200, limits assumed, looked up) with S2A, V20I, I35V, E42D, H65Q, K77Q, D78G, K89R
Assay: holdup assay
Set-up: key: below the threshold = too weak to quantify, mostly under pKd 3.1 to 4
Conditions: plain residues with an end cap or a label only (N-terminal biotin on a linker: ado-ado)

Binder	pKd
B1	below the threshold
B2	below the threshold

Target: LNX1_1, Q8TBB1
Assay: holdup assay
Set-up: key: below the threshold = too weak to quantify, mostly under pKd 3.1 to 4
Conditions: plain residues with an end cap or a label only (N-terminal biotin on a linker: ado-ado)

LNX1_1, Q8TBB1, sequence (Q8TBB1 261-371): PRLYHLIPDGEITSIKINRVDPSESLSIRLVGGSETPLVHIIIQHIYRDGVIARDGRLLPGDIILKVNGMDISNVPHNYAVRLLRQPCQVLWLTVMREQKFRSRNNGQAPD

Binder	pKd
B1	3.58
B2	4.06

Target: MAGI2_2, Q86UL8
Assay: holdup assay
Set-up: key: below the threshold = too weak to quantify, mostly under pKd 3.1 to 4
Conditions: plain residues with an end cap or a label only (N-terminal biotin on a linker: ado-ado)

MAGI2_2, Q86UL8, sequence (Q86UL8 410-522): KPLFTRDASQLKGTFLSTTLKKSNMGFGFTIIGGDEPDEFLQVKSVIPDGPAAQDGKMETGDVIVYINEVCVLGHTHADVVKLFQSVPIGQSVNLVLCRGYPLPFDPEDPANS

Binder	pKd
B1	below the threshold
B2	5.78

Target: MAGI2_6, Q86UL8
Assay: holdup assay
Set-up: key: below the threshold = too weak to quantify, mostly under pKd 3.1 to 4
Conditions: plain residues with an end cap or a label only (N-terminal biotin on a linker: ado-ado)

MAGI2_6, Q86UL8, sequence (Q86UL8 1141-1229): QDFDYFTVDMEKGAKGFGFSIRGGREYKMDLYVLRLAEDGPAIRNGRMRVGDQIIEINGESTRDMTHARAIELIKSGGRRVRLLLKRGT

Binder	pKd
B1	below the threshold
B2	below the threshold

Target: MAST2, Q6P0Q8
Assay: holdup assay
Set-up: key: below the threshold = too weak to quantify, mostly under pKd 3.1 to 4
Conditions: plain residues with an end cap or a label only (N-terminal biotin on a linker: ado-ado)

MAST2, Q6P0Q8, sequence (Q6P0Q8 1099-1202): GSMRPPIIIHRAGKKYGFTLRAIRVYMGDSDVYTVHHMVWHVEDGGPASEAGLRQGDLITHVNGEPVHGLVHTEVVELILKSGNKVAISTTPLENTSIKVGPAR

Binder	pKd
B1	5.82
B2	5.03

Target: T6, MPDZ_12, O75970
T6 sequence (O75970 1857-1958, limits assumed, looked up): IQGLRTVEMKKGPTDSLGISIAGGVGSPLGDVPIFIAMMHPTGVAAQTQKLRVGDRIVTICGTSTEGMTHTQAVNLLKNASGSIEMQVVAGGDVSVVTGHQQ
Assay: holdup assay
Set-up: key: below the threshold = too weak to quantify, mostly under pKd 3.1 to 4
Conditions: plain residues with an end cap or a label only (N-terminal biotin on a linker: ado-ado)

Binder	pKd
B1	below the threshold
B2	below the threshold

Target: NHERF2_2, Q15599
Assay: holdup assay
Set-up: key: below the threshold = too weak to quantify, mostly under pKd 3.1 to 4
Conditions: plain residues with an end cap or a label only (N-terminal biotin on a linker: ado-ado)

NHERF2_2, Q15599, sequence (Q15599 142-238): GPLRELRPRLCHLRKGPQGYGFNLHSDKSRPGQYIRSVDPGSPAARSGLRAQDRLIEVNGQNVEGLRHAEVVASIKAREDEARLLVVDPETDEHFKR

Binder	pKd
B1	5.19
B2	below the threshold

Target: NHERF4_4, Q86UT5
Assay: holdup assay
Set-up: key: below the threshold = too weak to quantify, mostly under pKd 3.1 to 4
Conditions: plain residues with an end cap or a label only (N-terminal biotin on a linker: ado-ado)

NHERF4_4, Q86UT5, sequence (Q86UT5 464-550): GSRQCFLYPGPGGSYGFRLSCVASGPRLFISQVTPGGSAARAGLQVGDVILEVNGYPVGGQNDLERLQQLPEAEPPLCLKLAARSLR

Binder	pKd
B1	below the threshold
B2	below the threshold

Target: T7, PCLO, Q9Y6V0
T7 sequence (Q9Y6V0 4491-4600, limits assumed, looked up): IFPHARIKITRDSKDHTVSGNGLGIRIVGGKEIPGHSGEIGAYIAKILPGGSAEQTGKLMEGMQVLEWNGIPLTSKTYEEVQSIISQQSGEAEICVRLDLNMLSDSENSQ
Assay: holdup assay
Set-up: key: below the threshold = too weak to quantify, mostly under pKd 3.1 to 4
Conditions: plain residues with an end cap or a label only (N-terminal biotin on a linker: ado-ado)

Binder	pKd
B1	below the threshold
B2	below the threshold

Target: T8, PTPN13_1, Q12923
T8 sequence (Q12923 1088-1188, limits assumed, looked up): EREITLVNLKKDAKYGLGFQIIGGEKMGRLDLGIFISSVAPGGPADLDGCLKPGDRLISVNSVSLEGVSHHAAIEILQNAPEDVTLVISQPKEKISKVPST
Assay: holdup assay
Set-up: key: below the threshold = too weak to quantify, mostly under pKd 3.1 to 4
Conditions: plain residues with an end cap or a label only (N-terminal biotin on a linker: ado-ado)

Binder	pKd
B1	below the threshold
B2	below the threshold

Target: T9, SHANK1, Q9Y566
T9 sequence (Q9Y566 658-767, limits assumed, looked up): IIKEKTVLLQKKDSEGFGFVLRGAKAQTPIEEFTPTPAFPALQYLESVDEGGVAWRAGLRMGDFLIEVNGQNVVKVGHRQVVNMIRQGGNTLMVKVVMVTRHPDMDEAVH
Assay: holdup assay
Set-up: key: below the threshold = too weak to quantify, mostly under pKd 3.1 to 4
Conditions: plain residues with an end cap or a label only (N-terminal biotin on a linker: ado-ado)

Binder	pKd
B1	4.33
B2	4.01

Target: T10, TX1BP3, O14907
T10 sequence (O14907 10-122, limits assumed, looked up): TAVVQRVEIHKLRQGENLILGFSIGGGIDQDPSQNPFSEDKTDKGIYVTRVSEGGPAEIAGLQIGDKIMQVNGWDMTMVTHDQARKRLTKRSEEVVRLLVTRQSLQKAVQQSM
Assay: holdup assay
Set-up: key: below the threshold = too weak to quantify, mostly under pKd 3.1 to 4
Conditions: plain residues with an end cap or a label only (N-terminal biotin on a linker: ado-ado)

Binder	pKd
B1	3.96
B2	3.74
